Measurements published in paper PMC4860965, “A novel role for the tumour suppressor Nitrilase1 modulating the Wnt/β-catenin signalling pathway” (Cell Discovery, 2016).

Target: T1, GST-β-catenin (GST-β-cat (aa1–781)) (UniProt P35222 1-781)
T1 construct: β-catenin aa1–781; the cDNA may be mouse (surmise); source: E. coli XL1 blue or BL21-RE4, purified (glutathione-agarose)
T1 sequence (looked up): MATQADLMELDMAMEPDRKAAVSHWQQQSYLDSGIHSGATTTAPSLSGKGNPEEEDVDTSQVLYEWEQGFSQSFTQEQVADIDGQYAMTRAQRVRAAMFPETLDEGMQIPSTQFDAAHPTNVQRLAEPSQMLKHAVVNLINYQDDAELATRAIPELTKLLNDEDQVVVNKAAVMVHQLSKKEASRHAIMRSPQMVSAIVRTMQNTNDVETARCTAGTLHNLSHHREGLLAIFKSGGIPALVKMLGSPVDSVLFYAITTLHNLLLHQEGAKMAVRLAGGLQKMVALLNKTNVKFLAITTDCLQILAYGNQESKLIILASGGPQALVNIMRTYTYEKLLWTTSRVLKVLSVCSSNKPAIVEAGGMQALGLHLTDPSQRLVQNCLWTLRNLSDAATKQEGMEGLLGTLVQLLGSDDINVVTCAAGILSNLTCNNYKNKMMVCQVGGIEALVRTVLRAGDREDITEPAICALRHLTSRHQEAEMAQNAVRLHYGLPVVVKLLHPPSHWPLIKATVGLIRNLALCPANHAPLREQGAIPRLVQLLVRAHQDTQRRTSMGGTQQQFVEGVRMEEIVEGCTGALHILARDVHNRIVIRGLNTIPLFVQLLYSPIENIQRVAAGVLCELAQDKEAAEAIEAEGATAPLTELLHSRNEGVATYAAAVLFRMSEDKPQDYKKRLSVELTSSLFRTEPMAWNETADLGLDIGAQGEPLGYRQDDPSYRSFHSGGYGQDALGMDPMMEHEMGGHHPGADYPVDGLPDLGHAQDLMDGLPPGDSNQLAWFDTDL
Assay: pull-down; 4 μg GST or GST fusion protein with 5 μg MBP fusion protein, 150 mM NaCl, 20 mM imidazole or HEPES pH 8.0, 2 mM MgCl2, 300 mM sucrose, 0.25% Triton X-100, 20 min at 4 °C; glutathione-agarose beads; western blot with anti-MBP
Conditions: both partners purified

B1: MBP-dNitFhit (natural protein, D. melanogaster, UniProt O76464 1-460, looked up)
chain: MSTLVNTTRRSIVIAIHQQLRRMSVQKRKDQSATIAVGQMRSTSDKAANLSQVIELVDRAKSQNACMLFLPECCDFVGESRTQTIELSEGLDGELMAQYRELAKCNKIWISLGGVHERNDQKIFNAHVLLNEKGELAAVYRKLHMFDVTTKEVRLRESDTVTPGYCLERPVSTPVGQIGLQICYDLRFAEPAVLLRKLGANLLTYPSAFTYATGKAHWEILLRARAIETQCFVVAAAQIGWHNQKRQSWGHSMIVSPWGNVLADCSEQELDIGTAEVDLSVLQSLYQTMPCFEHRRNDIYALTAYNLRSKEPTQDRPFATNIVDKRTIFYESEHCFAFTNLRCVVKGHVLVSTKRVTPRLCGLDCAEMADMFTTVCLVQRLLEKIYQTTSATVTVQDGAQAGQTVPHVHFHIMPRRLGDFGHNDQIYVKLDERAEEKPPRTIEERIEEAQIYRKFLTDIS
notes: Drosophila melanogaster NitFhit, amplified from the intronless genomic DNA; source: E. coli XL1 blue or BL21-RE4, purified (amylose resin)
  binding result: binds
